# B1: sMICA: soluble MICA, NKG2D ligand added to CD4 T cell cultures (protein)
# chain: EPHSLRYNLTVLSWDGSVQSGFLTEVHLDGQPFLRCDRQKCRAKPQGQWAEDVLGNKTWDRETRDLTGNGKDLRMTLAHIKDQKEGLHSLQEIRVCEIHEDNSTRSSQHFYYDGELFLSQNLETKEWTMPQSSRAQTLAMNVRNFLKEDAMKTKTHYHAMHADCLQELRRYLKSGVVLRRTVPPMVNVTRSEASEGNITVTCRASGFYPWNITLSWRQDGVSLSHDTQQWGDVLPDGNGTYQTWVATRICQGEEQRFTCYMEHSGNHSTHPVPSGK
# Key:
# Type in all cases: cell-based
# NKG2D+ CD4+ T cells = test: NKG2D expression and expansion of activated CD4 T cells; conditions: for expansion / proliferation of NKG2D+ CD4+ T cells: anti-CD3 activated CD4 T cell cultures
# Method: For the analysis of NKG2D expression in activated CD4 T cells, freshly isolated pure CD4^+ T cells were plated at 0.3×10^6/2 ml AIM-V medium (Gibco)/well in 24 well plates for various periods of time with or without the presence of mitogenic stimuli and/or the presence of NKG2D ligands. Mitogenic stimuli included either cross-linked anti-CD3 (plates were first coated with AffiniPure F(ab′)2 fragment goat anti-mouse IgG1, Fcγ fragment specific (Jackson ImmunoResearch Laboratories, Inc.) at 10 μg/ml in PBS over night at 4° C. followed by a 4 hr room temperature incubation with anti-CD3 (OKT3, Orthoclone, Ortho Biotech Products, L.P.) at 50 ng/ml (if not indicated otherwise), PHA (5 μg/ml), or PMA/Ionomycin. Ligand additions consisted of either irradiated CLR-MICA and control transfectants at a T cell:transfectant ratio of 5:1, or recombinant soluble MICA at 25 ng/ml if not indicated otherwise. Cells were harvested at various time points after the initiation of culture and tested for NKG2D, CD4 and CD3 coexpression using directly conjugated mAbs for standard three color flow cytometry.
# (§1) For analysis of CD4^+ T cell proliferation in conjunction with NKG2D expression, 1×10^7 freshly isolated pure CD4^+ T cells/ml PBS were labeled with an equal volume of 2 μM CFSE (Molecular Probes) for 8 min at room temperature. CFSE was quenched with an equal volume of fetal calf serum for one min followed by three washes with AIM-V medium. CFSE labeled cells were then plated, stimulated and phenotypically analysed as described above. Additional ligands tested in this experimental setting included any of either C1R-MICB, ULBP-1, -2, -3, 4, or -5 transfectants, recombinant soluble MICB, or 5% soluble MIC containing serum from a MIC+ tumor patient and MIC− control serum. To test ligand specificity, ligand containing cultures were treated with either 10 μg/ml 6D4 (anti-MICA/B), 10 μg/ml 3F1 (anti-ULBP-1), or appropriately diluted isotype control immunoglobulins. In some experiments, ligand was replaced by solid-phase anti-NKG2D (1D11) at the concentrations ranging from 5-50 ng/ml. In some experiments, ligand/solid-phase mAb were added on day 1, 2 or 3 after the initiation of culture.
# CD4 T cells = test: Cell cycle analysis by propidium iodide staining; conditions: anti-CD3 activated CD4 T cell cultures
# NKG2D- CD4+ T cells = test: CD4 T cell proliferation (CFSE dilution, [3H]thymidine incorporation); conditions: anti-CD3 activated CD4 T cell cultures
# Method: as §1
# To assess inhibition of CD4^+ T cell proliferation by standard [^3H]thymidine incorporation experiments, freshly isolated pure CD4^+ T cells were plated at 1×10^5 cells/well in a 96 well flat bottom plate containing titrated cross-linked anti-CD3 (see above) or isotype control Ig with or without titrated recombinant soluble MIC. After 72 hrs at 37° C., plates were pulsed with 3 μCi of [^3H]thymidine (Perkin Elmer) for 12 hrs. Plates were harvested and samples analysed by liquid scintillation using Uni-Filter GF/C plates and a TopCount Counter (both from Packard). Counts from triplicates were averaged.
molecule,measurement,setting,value
B1,expansion / proliferation of NKG2D+ CD4+ T cells,NKG2D+ CD4+ T cells,expansion of NKG2D^+ CD4^+ T cells
same,expansion / proliferation of NKG2D+ CD4+ T cells,NKG2D+ CD4+ T cells; listed as soluble MICA,proliferate
same,NKG2D induction on normal CD4+ T cells,NKG2D+ CD4+ T cells; upon anti-CD3 activation,enhanced
same,cell cycle distribution,CD4 T cells,partial cell cycle arrests in G0/G1
same,proliferation of NKG2D- CD4+ T cells,NKG2D- CD4+ T cells,inhibition of NKG2D^− CD4^+ T cell proliferation

# Reference: patent US20070248607A1, “NEGATIVE IMMUNOMODULATION OF IMMUNE RESPONSES BY NKG2D-POSITIVE CD4+ CELLS” (priority 2005, published 2007)
